B1: full-length human Draxin AVEXIS prey, wild type [human] / human Netrin-1 WT bait protein (VI+V), AVEXIS [human] (parent complex)
chain 1: GALAPGTPARNLPENHIDLPGPALWTPQASHHRRRGPGKKEWGPGLPSQAQDGAVVTATRQASRLPEAEGLLPEQSPAGLLQDKDLLLGLALPYPEKENRPPGWERTRKRSREHKRRRDRLRLHQGRALVRGPSSLMKKAELSEAQVLDAAMEESSTSLAPTMFFLTTFEAAPATEESLILPVTSLRPQQAQPRSDGEVMPTLDMALFDWTDYEDLKPDGWPSAKKKEKHRGKLSSDGNETSPAEGEPCDHHQDCLPGTCCDLREHLCTPHNRGLNNKCFDDCMCVEGLRCYAKFHRNRRVTRRKGRCVEPETANGDQGSFINV
chain 2: not shown

Response data for six variants are collected here from article PMC5871715 (2018).

In this experiment the parent is B1. Put plainly: AVEXIS; average of three repeats; read off a plot.
chain 1 F208R: the response is around 0.021 A486 nm.
In the case of chain 1 F208A it was around 0.055 A486 nm.
In the case of chain 1 F208P, the response was around 0.037 A486 nm.
In the case of chain 1 L203A it was around 0.004 A486 nm; in that of chain 1 L203P, around 0.005 A486 nm; in that of chain 1 L203R, around 0.004 A486 nm.
